One assay concerns the target T1, 가용형 인간 FcγRIIb (human, UniProt P31994 43-217, limits assumed).
T1 construct: also called hFcγRIIb; hFcγRII2b; not shown: His tag
T1 sequence (looked up): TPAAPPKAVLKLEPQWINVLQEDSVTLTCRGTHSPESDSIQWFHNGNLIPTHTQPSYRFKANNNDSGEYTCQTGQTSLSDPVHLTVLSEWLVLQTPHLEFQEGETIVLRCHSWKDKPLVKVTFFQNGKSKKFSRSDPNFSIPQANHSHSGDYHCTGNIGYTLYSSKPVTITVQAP
Kind of assay: SPR (BIACORE T200), hFcγRIIb captured by anti-His antibody, IgE-antibody complex as analyte, pH 7.4, 25C. In general terms: In SPR one partner is held on a chip, and binding of the other changes the refractive index at the surface.

For a further assay, the target named is T2, 가용형 인간 FcγRIa (human, UniProt P12314 16-292, limits assumed).
T2 construct: also called hFcγRIa; not shown: His tag
In words: SPR (BIACORE T200), antibody captured on rProtein L, soluble FcγR as analyte, 20C.

The next assay has as its target T3, 가용형 인간 FcγRIIIa (human, UniProt P08637 17-208, limits assumed).
T3 construct: also called hFcγRIIIa; not shown: His tag
The description is as above.

A further assay addresses T4, 가용형 필리핀 원숭이 FcγRIIIa (필리핀 원숭이 (cynomolgus monkey), UniProt Q8SPW2 17-208, limits assumed).
T4 construct: also called cynoFcγRIIIa; not shown: His tag
The assay is described as above.

The results in this text go back to patent publication KR20180006452A (dated 2018).

Residue numbers refer to the chain shown, from its start. Names and notes keep the numbering of the source.

T4 sequence (Q8SPW2 17-208 limits assumed): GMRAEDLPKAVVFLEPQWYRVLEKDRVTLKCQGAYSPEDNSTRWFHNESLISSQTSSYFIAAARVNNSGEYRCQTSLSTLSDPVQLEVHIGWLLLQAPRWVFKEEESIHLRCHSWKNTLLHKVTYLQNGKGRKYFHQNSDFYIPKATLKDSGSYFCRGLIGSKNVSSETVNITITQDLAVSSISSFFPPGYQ
T2 sequence (P12314 16-292 limits assumed): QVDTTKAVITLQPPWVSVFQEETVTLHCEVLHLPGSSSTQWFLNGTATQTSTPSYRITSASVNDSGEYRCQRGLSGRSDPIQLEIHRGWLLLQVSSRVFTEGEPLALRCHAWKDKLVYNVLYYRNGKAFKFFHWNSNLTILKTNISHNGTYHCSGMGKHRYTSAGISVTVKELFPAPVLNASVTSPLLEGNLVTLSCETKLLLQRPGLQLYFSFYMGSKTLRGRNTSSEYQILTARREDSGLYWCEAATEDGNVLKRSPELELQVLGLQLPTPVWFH
T3 sequence (P08637 17-208 limits assumed): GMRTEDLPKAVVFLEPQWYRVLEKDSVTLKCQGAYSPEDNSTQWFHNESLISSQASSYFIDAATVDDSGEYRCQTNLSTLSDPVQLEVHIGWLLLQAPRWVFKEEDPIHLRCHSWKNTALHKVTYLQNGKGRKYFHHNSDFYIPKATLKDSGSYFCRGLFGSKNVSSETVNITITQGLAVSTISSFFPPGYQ

B1: Ab1H-P1394m/Ab1L (antibody, human IgG1, kappa)
heavy: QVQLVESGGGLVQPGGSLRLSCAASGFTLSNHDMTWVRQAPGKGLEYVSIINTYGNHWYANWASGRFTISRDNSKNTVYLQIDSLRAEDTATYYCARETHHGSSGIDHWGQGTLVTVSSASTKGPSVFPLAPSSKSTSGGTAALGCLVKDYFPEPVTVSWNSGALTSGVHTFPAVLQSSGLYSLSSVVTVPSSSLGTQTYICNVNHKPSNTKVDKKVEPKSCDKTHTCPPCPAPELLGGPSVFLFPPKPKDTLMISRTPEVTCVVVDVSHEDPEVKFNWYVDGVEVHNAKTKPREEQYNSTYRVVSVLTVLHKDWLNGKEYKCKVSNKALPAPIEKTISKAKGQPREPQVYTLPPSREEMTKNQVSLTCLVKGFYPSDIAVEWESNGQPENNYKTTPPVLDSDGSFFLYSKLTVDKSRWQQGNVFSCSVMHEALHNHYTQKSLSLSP
light: DIQMTQSPSSVSASVGDRVTITCQASESIYSGLAWYQQKPGQPPKLLIYDHSTLASGVPSRFSGSGSGTEYALTISSLQPEDFATYYCQHADYAHHSDNVFGGGTKVEIKRTVAAPSVFIFPPSDEQLKSGTASVVCLLNNFYPREAKVQWKVDNALQSGNSQESVTEQDSKDSTYSLSSTLTLSKADYEKHKVYACEVTHQGLSSPVTKSFNRGEC
notes: Ab1H with Q311K (EU numbering)
With B1, in the assay with 가용형 인간 FcγRIIb, the binding result is “binds”.

B2: H1009/L395-F1886s (antibody)
heavy: QVQLVESGGGLVQPGGSLRLSCAASGFTFSDYYLSWVRQAPGKGLEWVGLIRNKDNYHTPEYSASVKGRFTISRDDSKNSLYLTMSDLKTEDTAVYYCARENHRYDVELAYWGQGTLVTVSSASTKGPSVFPLAPSSKSTSGGTAALGCLVKDYFPEPVTVSWNSGALTSGVHTFPAVLQSSGLYSLSSVVTVPSSSLGTQTYICNVNHKPSNTKVDKKVEPKSCDKTHTCPPCPAPELRRGPKVFLFPPKPKDTLMISRTPEVTCVVVDVSHEDPEVKFNWYVDGVEVHNAKTKPREEQYNSTYRVVSVLTVLHQDWLNGKEYKCKVSNKALPAPIEKTISKAKGQPREPQVYTLPPSREEMTKNQVSLTCLVKGFYPSDIAVEWESNGQPENNYKTTPPVLDSDGSFFLYSKLTVDKSRWQQGNVFSCSVLHEALHAHTTRKELSLSP
light: DIQMTQSPSSLSASVGDRVTITCRASEIIYSYLAWYQQKPGKAPKLLIYKAKTHADGVPSRFSGSGSGTDFTFTISSLQPEDIATYYCKHHFGFPRTFGQGTKVEIKRTVAAPSVFIFPPSDEQLKSGTASVVCLLNNFYPREAKVQWKVDNALQSGNSQESVTEQDSKDSTYSLSSTLTLSKADYEKHKVYACEVTHQGLSSPVTKSFNRGEC
notes: also called H1009-F1886s/L395-k0MT
Regarding B2, the binding result with 가용형 인간 FcγRIa, in the assay with 가용형 인간 FcγRIIIa and in the assay with 가용형 필리핀 원숭이 FcγRIIIa was “no binding” each time.

B3: H1009/L395-F1974m (antibody)
heavy: B2 heavy with K244S, A332G, A335S, P336S
light: B2 light
notes: also called H1009-F1974m/L395-k0MT
As for B3, the binding result in the assay with 가용형 인간 FcγRIa, with 가용형 인간 FcγRIIIa and with 가용형 필리핀 원숭이 FcγRIIIa was “no binding” throughout.
